Measurements reported in paper PMC2726290, “Decoding of Methylated Histone H3 Tail by the Pygo-BCL9 Wnt Signaling Complex” (Molecular Cell, 2008).

Test system: pygo null mutant clones in wing discs
Experiment: Rescue assays in Drosophila pygo null mutant clones
Type: in vivo
Conditions: for rescue of pygo mutant phenotypes (notches and bristle defects): anterior wing margin of adult flies bearing pygo mutant clones, overexpression; for rescue of senseless expression: overexpression by GAL4 system in pygo null mutant wing disc clones, third instar larvae
Text: To test whether the binding of Pygo to H3K4me is important for its function in vivo, we conducted rescue assays in Drosophila ([de la Roche and Bienz, 2007]). We introduced a point mutation into V757 (in EVND) of Drosophila Pygo, which corresponds to V350 of hPHD that lines its K4me pocket (Figure 4B) and whose mutation drastically reduces its binding to H3K4me3 (Figure 4E). We then generated pygo null mutant clones in wing discs, one of the best-characterized Wingless-responsive tissues whose development depends on Pygo function ([Belenkaya et al., 2002; de la Roche and Bienz, 2007; Kramps et al., 2002; Parker et al., 2002; Thompson et al., 2002]), and we used the GAL4 system to overexpress the Pygo-V757E mutant in these clones, to test its rescue activity in this tissue.
HA-tagged Pygo-V757E was constructed in pUAST, and multiple independent transformant lines were isolated, as described previously for WT HA-Pygo ([Townsley et al., 2004b]). Two different lines were each tested for rescue activity of pygo null mutant clones in the wing disc, as described ([de la Roche and Bienz, 2007]).

Molecule	rescue of pygo mutant phenotypes (notches and bristle defects)	rescue of senseless expression
WT Pygo: overexpressed wild-type HA-tagged Drosophila Pygo (protein, UniProt Q9V9W8 1-815, looked up, HA tag) Protein pygopus: MTHNLGMAPYRLPGPAGGLCPPDFKPPPPTDIISAPSNPKKRRKTSSAANSAAAVAAAAAAAAAANSMQQQQAPPTPQDLLPPPPMGGFGDTIIASNPFDDSPQVSAMSSSAAAAMAAMNQMGGGPGGGHFGGGGPGGHPHWEDRMGMGGGPPPPPHMHPHMHPHHPGGPMGHPHGPHPHMGGPPPMRGMSPMHPHQMGPGPGVGLPPHMNHGRPGGPGGPGGPVPMGSPMGGIAGMGGMSPMGGMGGPSISPHHMGMGGLSPMGGGPNGPNPRAMQGSPMGGPGQNSPMNSLPMGSPMGNPIGSPLGPPSGPGPGNPGNTGGPQQQQQQPPQPPMNNGQMGPPPLHSPLGNGPTGHGSHMPGGPIPGPGPGPGGLVGPGGISPAHGNNPGGSGNNMLGGNPGGGNSNNNGSNTSNASNNNQNPHLSPAAGRLGVPTSMQSNGPSVSSVASSSVPSPATPTLTPTSTATSMSTSVPTSSPAPPAMSPHHSLNSAGPSPGMPNSGPSPLQSPAGPNGPNNNNSNNNNGPMMGQMIPNAVPMQHQQHMGGGPPGHGPGPMPGMGMNQMLPPQQPSHLGPPHPNMMNHPHHPHHHPGGPPPHMMGGPGMHGGPAGMPPHMGGGPNPHMMGGPHGNAGPHMGHGHMGGVPGPGPGPGGMNGPPHPHMSPHHGHPHHHHNPMGGPGPNMFGGGGGGPMGPGGPMGNMGPMGGGPMGGPMGVGPKPMTMGGGKMYPPGQPMVFNPQNPNAPPIYPCGMCHKEVNDNDEAVFCESGCNFFFHRTCVGLTEAAFQMLNKEVFAEWCCDKCVSSKHIPMVKFKC	rescued all pygo mutant phenotypes	restored expression of senseless
Pygo-V757E: HA-tagged Drosophila Pygo with point mutation in V757 (in EVND) (protein, UniProt Q9V9W8 1-815, looked up, variant V757E, HA tag) Protein pygopus: MTHNLGMAPYRLPGPAGGLCPPDFKPPPPTDIISAPSNPKKRRKTSSAANSAAAVAAAAAAAAAANSMQQQQAPPTPQDLLPPPPMGGFGDTIIASNPFDDSPQVSAMSSSAAAAMAAMNQMGGGPGGGHFGGGGPGGHPHWEDRMGMGGGPPPPPHMHPHMHPHHPGGPMGHPHGPHPHMGGPPPMRGMSPMHPHQMGPGPGVGLPPHMNHGRPGGPGGPGGPVPMGSPMGGIAGMGGMSPMGGMGGPSISPHHMGMGGLSPMGGGPNGPNPRAMQGSPMGGPGQNSPMNSLPMGSPMGNPIGSPLGPPSGPGPGNPGNTGGPQQQQQQPPQPPMNNGQMGPPPLHSPLGNGPTGHGSHMPGGPIPGPGPGPGGLVGPGGISPAHGNNPGGSGNNMLGGNPGGGNSNNNGSNTSNASNNNQNPHLSPAAGRLGVPTSMQSNGPSVSSVASSSVPSPATPTLTPTSTATSMSTSVPTSSPAPPAMSPHHSLNSAGPSPGMPNSGPSPLQSPAGPNGPNNNNSNNNNGPMMGQMIPNAVPMQHQQHMGGGPPGHGPGPMPGMGMNQMLPPQQPSHLGPPHPNMMNHPHHPHHHPGGPPPHMMGGPGMHGGPAGMPPHMGGGPNPHMMGGPHGNAGPHMGHGHMGGVPGPGPGPGGMNGPPHPHMSPHHGHPHHHHNPMGGPGPNMFGGGGGGPMGPGGPMGNMGPMGGGPMGGPMGVGPKPMTMGGGKMYPPGQPMVFNPQNPNAPPIYPCGMCHKEENDNDEAVFCESGCNFFFHRTCVGLTEAAFQMLNKEVFAEWCCDKCVSSKHIPMVKFKC	WT Pygo but not Pygo-V757E rescued all pygo mutant phenotypes	no rescue whatsoever was observed
